Read-outs that look alike come from different tables or passages of the source.
Columns and labels:
[1] = molecular target: T1, human FcγR I CD64 (Sino Biological Inc. 10256-H08H) (human, UniProt P12314 16-288); assay: SPR (Biacore T200), antibody captured on protein A, FcγR as analyte, multicycle, 1:1 fit
T1 construct: Bought reagent

[2] = molecular target: T2, human FcγR IIA H131 CD32aH (v5774) (human, UniProt P12318 34-217, limits assumed); assay: SPR (Biacore T200), antibody captured on protein A, FcγR as analyte, single-cycle, steady-state fit;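 note: five FcγR concentrations per single cycle, 40 s association then 120 s dissociation, responses corrected against a reference flow cell and blank buffer injections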
T2 construct: In-house reagent
T2 sequence (looked up): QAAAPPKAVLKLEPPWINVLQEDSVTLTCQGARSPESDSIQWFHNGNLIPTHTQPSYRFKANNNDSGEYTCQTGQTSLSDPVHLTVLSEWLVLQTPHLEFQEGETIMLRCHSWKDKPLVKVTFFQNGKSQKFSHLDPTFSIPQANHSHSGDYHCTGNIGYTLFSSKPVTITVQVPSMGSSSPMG

[3] = molecular target: T3, human FcγR IIB Y160 CD32bY (v5777) (human, UniProt P31994 43-217, limits assumed); assay: as above
T3 construct: In-house reagent
T3 sequence (looked up): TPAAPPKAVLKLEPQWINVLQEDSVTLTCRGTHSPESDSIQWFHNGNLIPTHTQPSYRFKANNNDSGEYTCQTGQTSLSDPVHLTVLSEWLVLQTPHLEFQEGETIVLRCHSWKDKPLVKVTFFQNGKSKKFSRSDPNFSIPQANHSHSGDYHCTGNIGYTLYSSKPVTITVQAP

[4] = molecular target: T4, human FcγR IIIA F159 CD16aF (v5772) (human, UniProt P08637 17-208, limits assumed); assay: as above
T4 construct: In-house reagent

[5] = molecular target: T5, Biotinylated human FcRn (human, UniProt P55899 24-297; P61769 21-119, limits assumed, biotinylated (site not stated)); assay: SPR (Biacore T200), biotinylated FcRn on neutravidin, antibody as analyte, pH 5.9, steady-state fit
T5 construct: also called Biotinlated human FcRn; human neonatal fragment crystallizable receptor (FcRn)

[6] = molecular target: T6, human NaPi2b (sodium-dependent phosphate transporter 2B) (human, UniProt O95436 1-690); assay: cell-based or functional assay
T6 sequence: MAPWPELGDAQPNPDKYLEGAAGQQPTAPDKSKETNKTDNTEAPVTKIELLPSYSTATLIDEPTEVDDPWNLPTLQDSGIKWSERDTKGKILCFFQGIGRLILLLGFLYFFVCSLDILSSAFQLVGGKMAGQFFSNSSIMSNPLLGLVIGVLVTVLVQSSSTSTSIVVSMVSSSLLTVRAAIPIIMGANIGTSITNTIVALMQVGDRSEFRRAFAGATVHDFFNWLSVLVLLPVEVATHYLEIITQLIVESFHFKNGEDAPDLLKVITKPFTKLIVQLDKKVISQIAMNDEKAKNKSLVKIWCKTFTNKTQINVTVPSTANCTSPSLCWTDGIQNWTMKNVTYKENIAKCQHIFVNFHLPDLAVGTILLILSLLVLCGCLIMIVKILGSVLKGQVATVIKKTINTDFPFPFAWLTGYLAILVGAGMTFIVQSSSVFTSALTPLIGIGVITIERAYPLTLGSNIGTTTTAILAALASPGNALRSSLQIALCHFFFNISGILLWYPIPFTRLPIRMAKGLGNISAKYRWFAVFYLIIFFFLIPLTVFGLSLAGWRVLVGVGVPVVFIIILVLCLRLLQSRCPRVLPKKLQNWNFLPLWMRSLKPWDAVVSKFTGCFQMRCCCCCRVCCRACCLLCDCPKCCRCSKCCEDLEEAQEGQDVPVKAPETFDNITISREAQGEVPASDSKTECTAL

[7] = molecular target: T6, human NaPi2b (sodium-dependent …); assay: cell-based or functional assay; remark: listed apart in the source
[8] = molecular target: T6, human NaPi2b (sodium-dependent …); assay: flow cytometry on H441 cells (endogenous NaPi2b), 24 h at 4 C
[9] = molecular target: T6, human NaPi2b (sodium-dependent …); assay: flow cytometry on HCC-78 cells (endogenous NaPi2b), 24 h at 4 C
[10] = molecular target: T6, human NaPi2b (sodium-dependent …); assay: flow cytometry on IGROV-1 cells (endogenous NaPi2b), 24 h at 4 C
[11] = molecular target: T7, human sodium-dependent phosphate transporter 2B (NaPi2b) (human, UniProt O95436 1-690); assay: cell-based or functional assay
T7 sequence: T6 sequence

[12] = molecular target: T7, human sodium-dependent phosphate …; assay: cell-based or functional assay; remark: listed apart in the source
[13] = molecular target: T7, human sodium-dependent phosphate …; assay: cell-based or functional assay; remark: listed apart in the source
[14] = molecular target: T7, human sodium-dependent phosphate …; assay: cell-based or functional assay; remark: listed apart in the source

T5 sequence (P55899 24-297 limits assumed, chain 1 of 2): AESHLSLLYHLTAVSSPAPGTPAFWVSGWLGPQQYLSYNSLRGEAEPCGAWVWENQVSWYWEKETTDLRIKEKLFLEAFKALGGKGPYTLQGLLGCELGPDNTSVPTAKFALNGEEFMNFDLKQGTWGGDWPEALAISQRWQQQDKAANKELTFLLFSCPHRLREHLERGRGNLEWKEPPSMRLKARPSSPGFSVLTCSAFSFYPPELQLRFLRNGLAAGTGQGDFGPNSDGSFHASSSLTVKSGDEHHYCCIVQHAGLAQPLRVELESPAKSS
T5 sequence (P61769 21-119 limits assumed, chain 2 of 2): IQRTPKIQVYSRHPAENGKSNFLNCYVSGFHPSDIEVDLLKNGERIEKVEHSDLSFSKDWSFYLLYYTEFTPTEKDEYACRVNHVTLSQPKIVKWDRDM
T4 sequence (P08637 17-208 limits assumed): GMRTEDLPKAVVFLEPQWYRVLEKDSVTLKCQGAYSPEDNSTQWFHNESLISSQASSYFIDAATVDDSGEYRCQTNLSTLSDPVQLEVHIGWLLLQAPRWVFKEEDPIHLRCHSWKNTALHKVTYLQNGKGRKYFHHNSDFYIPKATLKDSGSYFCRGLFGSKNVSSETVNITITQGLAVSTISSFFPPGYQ
T1 sequence (P12314 16-288 limits assumed): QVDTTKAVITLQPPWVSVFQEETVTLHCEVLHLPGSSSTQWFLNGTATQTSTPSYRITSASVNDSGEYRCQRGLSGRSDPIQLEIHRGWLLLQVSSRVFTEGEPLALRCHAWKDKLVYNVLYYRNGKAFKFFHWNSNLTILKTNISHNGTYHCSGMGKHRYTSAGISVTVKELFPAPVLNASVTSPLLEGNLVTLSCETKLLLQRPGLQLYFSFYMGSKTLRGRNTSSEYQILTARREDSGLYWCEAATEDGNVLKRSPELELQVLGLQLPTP

B1: Upifitamab (v40885, wild-type Fc) (antibody, human IgG1, kappa)
heavy 1: GQVQLVQSGAEVVKPGASVKMSCKASGYTFTGYNIHWVKQAPGQGLEWIGAIYPGNGDTSYKQKFRGRATLTADTSTSTVYMELSSLRSEDSAVYYCARGETARATFAYWGQGTLVTVSSASTKGPSVFPLAPSSKSTSGGTAALGCLVKDYFPEPVTVSWNSGALTSGVHTFPAVLQSSGLYSLSSVVTVPSSSLGTQTYICNVNHKPSNTKVDKKVEPKSCDKTHTCPPCPAPELLGGPSVFLFPPKPKDTLMISRTPEVTCVVVDVSHEDPEVKFNWYVDGVEVHNAKTKPREEQYNSTYRVVSVLTVLHQDWLNGKEYKCKVSNKALPAPIEKTISKAKGQPREPQVYVYPPSRDELTKNQVSLTCLVKGFYPSDIAVEWESNGQPENNYKTTPPVLDSDGSFALVSKLTVDKSRWQQGNVFSCSVMHEALHNHYTQKSLSLSPG
heavy 2: not shown
light: GDIQMTQSPSSLSASVGDRVTITCSASQDIGNFLNWYQQKPGKTVKVLIYYTSSLYSGVPSRFSGSGSGTDYTLTISSLQPEDFATYYCQQYSKLPLTFGQGTKLELKRTVAAPSVFIFPPSDEQLKSGTASVVCLLNNFYPREAKVQWKVDNALQSGNSQESVTEQDSKDSTYSLSSTLTLSKADYEKHKVYACEVTHQGLSSPVTKSFNRGEC
Binding percentage [1]: 97.7% | Binding percentage [2]: 92.1% | Kd [2]: 1010 nM | Binding percentage [3]: 121% | Kd [3]: 5780 nM | Binding percentage [4]: 98.7% | Kd [4]: 2380 nM | Binding percentage [5]: 20.3% | Kd [5]: 61.8 nM

B2: v38591-MC-GGFG-AM-Compound 139 DAR 4 (antibody, human IgG1, kappa)
heavy: not shown
light: DVQMTQSPSSLSASVGDRVTITCRASQDVYSYLNWYQQKPGKAVKLLIYYTSRLQSGVPSRFSGSGSGTDYTLTISSLQPEDFATYYCQQYNIFPWTFGQGTKLEIKRTVAAPSVFIFPPSDEQLKSGTASVVCLLNNFYPREAKVQWKVDNALQSGNSQESVTEQDSKDSTYSLSSTLTLSKADYEKHKVYACEVTHQGLSSPVTKSFNRGEC
modifications: drug-linker MC-GGFG-AM-Compound 139 on cysteines freed by TCEP reduction, DAR 4 over the whole antibody
Internalized Fluorescence Fold-Over Untreated, H441, 4 h, 2.5 nM [6]: 1.2 fold | Internalized Fluorescence Fold-Over Untreated, H441, 24 h, 2.5 nM [6]: 2 fold | Internalized Fluorescence Fold-Over Untreated, HCC-78, 4 h, 2.5 nM [6]: 5.6 fold | Internalized Fluorescence Fold-Over Untreated, HCC-78, 24 h, 2.5 nM [6]: 35.9 fold | Internalized Fluorescence Fold-Over Untreated, IGROV-1, 4 h, 2.5 nM [6]: 7.1 fold | Internalized Fluorescence Fold-Over Untreated, IGROV-1, 24 h, 2.5 nM [6]: 26.6 fold | EC50 (nM), in vitro cytotoxicity, H441 spheroids, 7 days [7]: 9.85 nM | EC50 (nM), in vitro cytotoxicity, H1781 spheroids, 7 days [7]: 0.95 nM | Bmax (MFI) [8]: 521 MFI | Kd [8]: 0.74 nM | Bmax (MFI) [9]: 7810 MFI | Kd [9]: 1.07 nM | Bmax (MFI) [10]: 10500 MFI | Kd [10]: 0.82 nM

B3: v29456-MT-GGFG-AM-Compound 139 DAR 8 (antibody, human IgG1, kappa)
heavy: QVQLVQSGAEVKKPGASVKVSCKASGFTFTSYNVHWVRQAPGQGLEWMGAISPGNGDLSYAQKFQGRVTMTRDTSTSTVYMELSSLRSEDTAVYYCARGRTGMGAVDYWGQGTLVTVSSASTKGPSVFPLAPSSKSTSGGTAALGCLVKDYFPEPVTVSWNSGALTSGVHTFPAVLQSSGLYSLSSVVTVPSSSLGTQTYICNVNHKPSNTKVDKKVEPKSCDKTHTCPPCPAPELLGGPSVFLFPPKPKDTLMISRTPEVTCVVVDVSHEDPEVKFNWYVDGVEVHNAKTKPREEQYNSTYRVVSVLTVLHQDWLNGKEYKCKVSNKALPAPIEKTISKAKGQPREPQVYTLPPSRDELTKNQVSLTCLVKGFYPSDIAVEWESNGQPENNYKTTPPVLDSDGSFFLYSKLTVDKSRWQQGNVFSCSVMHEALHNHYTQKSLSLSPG
light: B2 light
modifications: drug-linker MT-GGFG-AM-Compound 139 on cysteine thiols after TCEP reduction, positions not given; DAR 8 for the whole antibody
EC50, in vitro cytotoxicity, 2D monolayer, HCC-78 [11]: 0.65 nM | EC50, in vitro cytotoxicity, 2D monolayer, IGROV-1 [11]: 1.71 nM | EC50, in vitro cytotoxicity, HCC-78 spheroids [12]: 0.82 nM | EC50, in vitro cytotoxicity, IGROV-1 spheroids [12]: 0.37 nM

B4: v29456-MC-GGFG-AM-DXd1 DAR 8 (antibody, human IgG1, kappa)
heavy: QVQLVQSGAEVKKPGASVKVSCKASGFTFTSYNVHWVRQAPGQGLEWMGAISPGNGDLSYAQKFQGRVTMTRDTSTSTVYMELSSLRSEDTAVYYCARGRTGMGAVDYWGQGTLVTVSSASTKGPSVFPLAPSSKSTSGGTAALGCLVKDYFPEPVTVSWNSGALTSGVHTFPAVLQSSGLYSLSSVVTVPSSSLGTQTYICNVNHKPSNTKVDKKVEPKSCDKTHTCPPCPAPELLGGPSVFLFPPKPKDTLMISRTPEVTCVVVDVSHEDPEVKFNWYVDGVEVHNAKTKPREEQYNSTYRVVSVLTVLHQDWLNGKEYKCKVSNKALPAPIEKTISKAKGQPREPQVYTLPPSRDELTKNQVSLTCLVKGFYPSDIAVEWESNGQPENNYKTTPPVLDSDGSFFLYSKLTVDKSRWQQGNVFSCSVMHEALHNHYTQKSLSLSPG
light: B2 light
modifications: drug-linker MC-GGFG-AM-DXd1 on cysteine thiols after TCEP reduction, positions not given; DAR 8 for the whole antibody
EC50, in vitro cytotoxicity, 2D monolayer, HCC-78 [11]: 0.55 nM | EC50, in vitro cytotoxicity, 2D monolayer, IGROV-1 [11]: 0.45 nM | EC50, in vitro cytotoxicity, HCC-78 spheroids [12]: 0.6 nM | EC50, in vitro cytotoxicity, IGROV-1 spheroids [12]: 0.27 nM

B5: v29456-MT-GGFG-AM-Compound 141 DAR 8 (antibody, human IgG1, kappa)
heavy: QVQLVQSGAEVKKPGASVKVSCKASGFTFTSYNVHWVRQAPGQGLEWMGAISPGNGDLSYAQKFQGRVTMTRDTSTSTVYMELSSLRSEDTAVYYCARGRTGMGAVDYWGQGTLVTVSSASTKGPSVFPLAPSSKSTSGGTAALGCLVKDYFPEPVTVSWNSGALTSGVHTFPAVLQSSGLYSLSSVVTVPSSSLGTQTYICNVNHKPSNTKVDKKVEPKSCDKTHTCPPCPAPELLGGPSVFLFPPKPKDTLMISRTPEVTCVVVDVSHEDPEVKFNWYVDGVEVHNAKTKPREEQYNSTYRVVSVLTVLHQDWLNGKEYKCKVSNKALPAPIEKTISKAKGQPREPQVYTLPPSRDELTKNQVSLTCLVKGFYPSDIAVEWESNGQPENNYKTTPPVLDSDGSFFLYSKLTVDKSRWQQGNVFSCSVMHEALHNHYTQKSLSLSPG
light: B2 light
modifications: drug-linker MT-GGFG-AM-Compound 141 on cysteine thiols after TCEP reduction, positions not given; DAR 8 for the whole antibody
EC50, in vitro cytotoxicity, 2D monolayer, HCC-78 [11]: 0.26 nM | EC50, in vitro cytotoxicity, 2D monolayer, IGROV-1 [11]: 1.56 nM | EC50, in vitro cytotoxicity, HCC-78 spheroids [12]: 0.33 nM | EC50, in vitro cytotoxicity, IGROV-1 spheroids [12]: 0.21 nM

B6: v29456-MC-GGFG-Compound 141 DAR 8 (antibody, human IgG1, kappa)
heavy: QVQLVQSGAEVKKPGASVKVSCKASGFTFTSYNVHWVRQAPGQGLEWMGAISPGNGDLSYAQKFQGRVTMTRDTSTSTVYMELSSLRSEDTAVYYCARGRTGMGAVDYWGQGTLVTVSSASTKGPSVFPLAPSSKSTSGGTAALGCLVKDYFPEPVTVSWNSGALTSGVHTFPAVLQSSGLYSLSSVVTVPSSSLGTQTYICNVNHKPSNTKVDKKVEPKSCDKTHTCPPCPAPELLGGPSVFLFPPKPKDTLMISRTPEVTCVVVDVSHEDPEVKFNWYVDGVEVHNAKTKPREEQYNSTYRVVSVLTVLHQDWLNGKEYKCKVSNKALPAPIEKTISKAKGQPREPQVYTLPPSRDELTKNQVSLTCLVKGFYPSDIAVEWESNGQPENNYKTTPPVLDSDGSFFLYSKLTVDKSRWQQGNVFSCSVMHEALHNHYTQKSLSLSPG
light: B2 light
modifications: drug-linker MC-GGFG-Compound 141 on cysteine thiols after TCEP reduction, positions not given; DAR 8.0 for the whole antibody
EC50, in vitro cytotoxicity, 2D monolayer, IGROV-1 [13]: 3.01 nM | EC50, in vitro cytotoxicity, 2D monolayer, TOV-21G [13]: 0.93 nM | EC50, in vitro cytotoxicity, IGROV-1 spheroids [14]: 0.44 nM | EC50, in vitro cytotoxicity, TOV-21G:HDFa (1:1) spheroids [14]: 0.9 nM

B7: v29456-MT-GGFG-Compound 140 DAR 8 (antibody, human IgG1, kappa)
heavy: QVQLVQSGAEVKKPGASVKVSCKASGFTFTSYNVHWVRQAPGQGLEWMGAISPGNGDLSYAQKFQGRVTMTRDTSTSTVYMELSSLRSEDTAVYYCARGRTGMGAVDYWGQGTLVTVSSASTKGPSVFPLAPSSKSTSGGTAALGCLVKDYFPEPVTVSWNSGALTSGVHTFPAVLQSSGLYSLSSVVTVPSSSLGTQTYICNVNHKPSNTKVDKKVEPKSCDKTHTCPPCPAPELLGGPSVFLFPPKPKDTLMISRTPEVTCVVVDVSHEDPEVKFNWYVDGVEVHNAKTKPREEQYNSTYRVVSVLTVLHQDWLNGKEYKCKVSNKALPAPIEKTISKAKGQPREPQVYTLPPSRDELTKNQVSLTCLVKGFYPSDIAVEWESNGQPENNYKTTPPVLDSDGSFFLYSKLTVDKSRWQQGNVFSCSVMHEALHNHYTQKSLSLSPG
light: B2 light
modifications: drug-linker MT-GGFG-Compound 140 on cysteine thiols after TCEP reduction, positions not given; DAR 8 for the whole antibody
EC50, in vitro cytotoxicity, 2D monolayer, HCC-78 [11]: 0.6 nM | EC50, in vitro cytotoxicity, HCC-78 spheroids [12]: 0.19 nM | EC50, in vitro cytotoxicity, IGROV-1 spheroids [12]: 0.25 nM

B8: v29456-MC-GGFG-Compound 141 DAR 3.4 (antibody, human IgG1, kappa)
heavy: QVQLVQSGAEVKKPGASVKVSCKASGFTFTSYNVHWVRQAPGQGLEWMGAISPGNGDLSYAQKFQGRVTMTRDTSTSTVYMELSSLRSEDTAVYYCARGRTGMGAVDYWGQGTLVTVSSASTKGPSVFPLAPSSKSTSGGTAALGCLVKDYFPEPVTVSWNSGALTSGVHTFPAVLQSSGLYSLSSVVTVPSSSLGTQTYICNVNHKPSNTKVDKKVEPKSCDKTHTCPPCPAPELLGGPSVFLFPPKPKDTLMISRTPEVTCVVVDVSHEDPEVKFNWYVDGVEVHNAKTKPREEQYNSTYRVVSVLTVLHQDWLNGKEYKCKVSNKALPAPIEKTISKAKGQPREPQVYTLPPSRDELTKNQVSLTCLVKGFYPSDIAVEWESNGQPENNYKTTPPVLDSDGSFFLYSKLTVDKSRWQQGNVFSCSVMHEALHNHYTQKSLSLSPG
light: B2 light
modifications: drug-linker MC-GGFG-Compound 141 on cysteine thiols after TCEP reduction, positions not given; DAR 3.4 for the whole antibody
EC50, in vitro cytotoxicity, 2D monolayer, IGROV-1 [13]: 16.4 nM | EC50, in vitro cytotoxicity, IGROV-1 spheroids [14]: 1.31 nM | EC50, in vitro cytotoxicity, TOV-21G:HDFa (1:1) spheroids [14]: 0.99 nM

B9: v29456-MC-GGFG-AM-Compound 139 DAR 3.4 (antibody, human IgG1, kappa)
heavy: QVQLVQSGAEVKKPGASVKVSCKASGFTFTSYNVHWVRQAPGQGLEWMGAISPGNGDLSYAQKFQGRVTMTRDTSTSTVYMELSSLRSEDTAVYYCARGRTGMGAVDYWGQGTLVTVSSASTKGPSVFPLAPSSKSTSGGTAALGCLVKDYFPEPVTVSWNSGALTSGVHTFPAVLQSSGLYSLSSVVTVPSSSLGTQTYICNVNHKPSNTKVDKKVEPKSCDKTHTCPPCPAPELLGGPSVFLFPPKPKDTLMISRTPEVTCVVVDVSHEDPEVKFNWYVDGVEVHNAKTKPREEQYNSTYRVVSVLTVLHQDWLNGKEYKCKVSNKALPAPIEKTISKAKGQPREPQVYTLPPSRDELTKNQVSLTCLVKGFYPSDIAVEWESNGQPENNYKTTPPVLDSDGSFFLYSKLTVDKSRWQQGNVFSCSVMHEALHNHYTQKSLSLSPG
light: B2 light
modifications: drug-linker MC-GGFG-AM-Compound 139 on cysteine thiols after TCEP reduction, positions not given; DAR 3.4 for the whole antibody
EC50, in vitro cytotoxicity, 2D monolayer, IGROV-1 [13]: 5.46 nM | EC50, in vitro cytotoxicity, IGROV-1 spheroids [14]: 0.88 nM | EC50, in vitro cytotoxicity, TOV-21G:HDFa (1:1) spheroids [14]: 0.76 nM

B10: Lifastuzumab (v18993, wild-type Fc) (antibody, human IgG1, kappa)
heavy 1: GEVQLVESGGGLVQPGGSLRLSCAASGFSFSDFAMSWVRQAPGKGLEWVATIGRVAFHTYYPDSMKGRFTISRDNSKNTLYLQMNSLRAEDTAVYYCARHRGFDVGHFDFWGQGTLVTVSSASTKGPSVFPLAPSSKSTSGGTAALGCLVKDYFPEPVTVSWNSGALTSGVHTFPAVLQSSGLYSLSSVVTVPSSSLGTQTYICNVNHKPSNTKVDKKVEPKSCDKTHTCPPCPAPELLGGPSVFLFPPKPKDTLMISRTPEVTCVVVDVSHEDPEVKFNWYVDGVEVHNAKTKPREEQYNSTYRVVSVLTVLHQDWLNGKEYKCKVSNKALPAPIEKTISKAKGQPREPQVYVYPPSRDELTKNQVSLTCLVKGFYPSDIAVEWESNGQPENNYKTTPPVLDSDGSFALVSKLTVDKSRWQQGNVFSCSVMHEALHNHYTQKSLSLSPG
heavy 2: not shown
light: GDIQMTQSPSSLSASVGDRVTITCRSSETLVHSSGNTYLEWYQQKPGKAPKLLIYRVSNRFSGVPSRFSGSGSGTDFTLTISSLQPEDFATYYCFQGSFNPLTFGQGTKVEIKRTVAAPSVFIFPPSDEQLKSGTASVVCLLNNFYPREAKVQWKVDNALQSGNSQESVTEQDSKDSTYSLSSTLTLSKADYEKHKVYACEVTHQGLSSPVTKSFNRGEC
notes: Two different heavy chains (heterodimeric Fc)
Binding percentage [1]: 76.9% | Kd [1]: 0.0966 nM | Binding percentage [2]: 69.6% | Kd [2]: 746 nM | Binding percentage [3]: 88.6% | Kd [3]: 3740 nM | Binding percentage [4]: 71.5% | Kd [4]: 2020 nM | Binding percentage [5]: 25.1% | Kd [5]: 68.2 nM
